Measurements published in patent US20250127918A1, “SITE-SELECTIVE CONJUGATION OF A PHARMACEUTICAL AGENT TO AN ANTIBODY USING AN AFFINITY PEPTIDE” (priority 2023, published 2025).

How the values were obtained:
[1] = mouse, in vivo, ip
Procedure: Each sample was weighted and count in a gamma counter (Wizard2, Perkin Elmer LLC, USA) to get the counts per minutes (cpm) for determining the percentage of injected activity per gram (% IA/g) in each organ. Cpm were decay-corrected by using the following formula: A=A0 e((−(ln2)Δt)/T) with A=decay-corrected cpm, A0=raw cpm, Δt=time difference between the injection and the cpm measurement, and T=half-life of the radionuclide (i.e. 78.41 h for Zr-89).

Trastuzumab [2] = target: T1, Trastuzumab (Homo sapiens, UniProt P01857, D239E/L241M); test: Bioconjugation handle / GLP1 transfer to trastuzumab, analyzed by Q-ToF LC-MS; assay type: biochemical; conditions: 10 equivalents, 100 mM HEPES pH 8.5, room temperature, 24 h
T1 construct: purchased Syd Labs Inc; MedChemExpress LLC; Bio X Cell

mouse IgG = test: Azido transfer to mouse IgG in mouse serum (E1/E2 sandwich ELISA); assay type: biochemical; conditions: after 2 h of incubation in mouse sera
Source text: Two sandwich ELISA assays have been developed in-house, one for the detection of the azido moiety conjugated mouse IgG (mIgG, E1), the other one for the detection of the whole mIgGs (modified and unmodified) in the sample (E2). Both E1 and E2 were run simultaneously on a same plate, using the same initial stock sample, and were processed in parallel at the same time for every steps. The same azido-free capture goat anti-mouse polyclonal antibody (Creative Diagnostics) was used for both E1-E2 assays at 1 μg/mL (100 μL per well) for incubation overnight at 4° C. Washing steps were performed thoroughly between each incubation by using 0.02% Tween 20-PBS. […] Absorbances were measured at 450 nm and 540 nm (A0=A450 nm-A540 nm) using a Spark microplate reader (Tecan, USA). The background noise (Ablank) from the serum was subtracted to get the final absorbance of the sample (Asample=A0-Ablank). The ratio Asample (E1)/Asample (E2) was calculated to estimate the percentage of azido transfer on the total amount of IgG in the sample.
Two sandwich ELISA assays have been developed in-house, one for the detection of the azido moiety conjugated mouse IgG (mIgG, E1), the other one for the detection of the whole mIgGs (modified and unmodified) in the sample (E2). […] Absorbances were measured at 450 nm and 540 nm (A0=A450nm−A540nm) using a Spark microplate reader (Tecan, USA). […]

Trastuzumab [3] = target: T1, Trastuzumab; test: Determination of the modification sites (Trypsin/Lys-C digest, nLC-MS/MS); assay type: biochemical; conditions: Tmab, LC-MS/MS sequencing
Procedure: The modified trastuzumab (30 μg) from entry 6 of 5.2.1 was diluted to 36 μL using Tris buffer (50 mM, pH 8.0). PNGase F (New England BioLabs, 200 units) was added to the solution and incubated at 37° C. for 4 hours. The reaction solution was then brought to room temperature, and urea solution (6M in 50 mM Tris pH 8.0, 14 μL) and DTT solution (200 mM, 1.5 μL) were added and incubated at 37° C. for 1 hour. After that, iodoacetamide (800 mM, 1 μL) was added and incubated at room temperature for 30 minutes. The resulting solution was diluted 2-fold using Tris buffer (50 mM, pH 8.0), and then Trypsin/Lys-C mix (Promega, 0.2 μg/μL in solution, 6 μL) was added and incubated at 37° C. for 18 hours. The reaction solution was then purified by pipetting with Ziptip, lyophilized, and analyzed by nLC-MS/MS (using nLC-MS/MS method B). Obtained raw data were analyzed using Thermo Scientific FreeStyle™ 1.6. […]
The modified trastuzumab (30 μg) from entry 6 of 5.2.1 was diluted to 36 μL using Tris buffer (50 mM, pH 8.0). […] The reaction solution was then purified by pipetting with Ziptip, lyophilized, and analyzed by nLC-MS/MS (using nLC-MS/MS method B). Obtained raw data were analyzed using Thermo Scientific FreeStyle™ 1.6. […]

Fc fragment of IgG1 = test: Binding affinity of Z33 and variants to IgG Fc

Sequence: FNMQQQRRFYEALHD PNLNHcyEQRNAKIKSI RDD [PEL-21]
- Time remaining in specific organs [1]: up to 144 hours
- Light chain total conversion (Trastuzumab [2]): 5%
- IgG conversion rate in mouse sera (mouse IgG): 33±1%
- Site of modification (Trastuzumab [3]): Lys-317
- Kd (Fc fragment of IgG1): ~60 nM
